According to the supplement of paper PMC9170038:

System: MS2 coat protein
Assay: apparent KD of MS2 coat protein; designed switch direction (-1 OFF switch, 1 ON switch): -1; higher = weaker reporter binding
In short: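 Designed RNA switches were transcribed on Illumina chips by stalled E. coli RNA polymerase and titrated with SNAP-549-labelled MS2 coat protein from 0.7 or 1.5 nM, doubling to 3 µM. Step length ran from 0.8–1.5 h at the lowest concentration to 10–20 min at the highest. The apparent KD is the median over clusters for each design, from curve-fitted normalised cluster fluorescence.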

[1] = Eterna round: R95, input ligand: microRNA oligo, concentration not stated
[2] = Eterna round: R95, input ligand: FMN 200 uM
[3] = Eterna round: R95, input ligand: none
[4] = input ligand: microRNA oligo, concentration not stated

Sequence	apparent KD of MS2 coat protein [1]	apparent KD of MS2 coat protein (input ligand: FMN 200 uM)	apparent KD of MS2 coat protein (input ligand: none)	further results
AAGGAGUGAGGAUAUGCGCGGGCACGCUCUAAAUAAGAAAGACAUGAGGAUCACCCAUGUAGAAGGCACAAUAA [Leedla] (puzzle: Exclusion 2)	17.8 nM			
AAGGAUAGAGGAUAUACAUAGAUACAGAUUCGUGUAGAACUACAUGAGGAUCACCCAUGUAGAAGGCUAUCCUA [Fiskers Ex 2 - 7] (puzzle: Exclusion 2)	15.2 nM			
AAGGAUAGAGGAUAUACAUAGAUACAGGUUCAUGUAGAACUACAUGAGGAUCACCCAUGUAGAAGGCUAUCCUA [Fiskers Ex 2 - 8] (puzzle: Exclusion 2)	20.8 nM			apparent KD of MS2 coat protein [2]: 113 nM; apparent KD of MS2 coat protein [3]: 21.1 nM
AAGGGCUGAGGAUAUGCGCGGGCAAGAUCCUCAAUCCCAAAACAUGAGGAUCACCCAUGUAGAAGGCAGAAAUA [Atedonesle] (puzzle: Exclusion 2)	28.3 nM			
AAGGGUGCUUUCAGAACGACAUGAGGAUCACCCAUGUAGACUGAGGAUAUCUACUUCUAAGGACGGGAGAAGGCAGUGUAAUGU [Ex NG3 #71] (Eterna round: R96, puzzle: Exclusion NG 3)		25.5 nM	22.6 nM	apparent KD of MS2 coat protein [4]: 17.8 nM
AAGGUACAUGAGGAUCACCCAUGUGAGGAUAUCGUUGUUGAGUCUAGAGAUACAAUGUUGAGAAGGUACGGGUA [Eternabot (L2) Solution 94] (Eterna round: R97, puzzle: Exclusion 1)		63.1 nM	61.2 nM	
AAGUCCUUGUGGACACAUGAGGAUCACCCAUGUGCGGUCAGCGAGGAUAUCGGUCUAUAAUGUGACGAGAAGGCGCGGACCGAU [Ex NG3 #61] (Eterna round: R96, puzzle: Exclusion NG 3)		26.2 nM	21.3 nM	apparent KD of MS2 coat protein [4]: 15.3 nM
AAGUGCAAAGGAUAUACGUGACUUACUCCAAUUGCUACCCGACAUGAGGAUCACCCAUGUAGAAGGUUGCGCAC [Eternabot (Original) Solution 20] (Eterna round: R97, puzzle: Exclusion 2)		34.3 nM	16.6 nM	
AAUAAACAUGAGGAUCACCCAUGUGAGGAUAUACAGAUUAUAAGAAAAAAAAAAAAAAGUAGAAGGCACAUAUA [Default title] (Eterna round: R96, puzzle: Exclusion 1)		39.6 nM	37.6 nM	apparent KD of MS2 coat protein [4]: 29.9 nM
AAUAAAGUAGGAUAUACAUGAGGAUCACCCAUGUCCCACCCGUUACCUAUGACCAUAUGUAGAAGGACUAAUAA [Exy#3] (Eterna round: R97, puzzle: Exclusion 3)		80 nM	59.1 nM	
AAUAACAAGCUGAUCCUUCACAUGAGGAUCACCCAUGUGCUCGUCUUGUAAAGUACUAUCACGAAAGUGAUAGUACA (Eterna round: R97, puzzle: Sensor, turn-off variant 1)		127 nM	125 nM	
AAUAACAGAGGAUAUACUAUUUUAUGUAUUUAUUAUUUUAAACAUGAGGAUCACCCAUGUAGAAGGCUGAAUGA [JMF 54] (puzzle: Exclusion 2)	21.6 nM			apparent KD of MS2 coat protein [2]: 20.6 nM; apparent KD of MS2 coat protein [3]: 21.5 nM
AAUAACAGAGGAUAUACUAUUUUAUGUGUUUGUUGUUUUGAACAUGAGGAUCACCCAUGUAGAAGGCUGAAUAA [JMF 26] (puzzle: Exclusion 2)	22.1 nM			
AAUAACAGAGGAUAUACUGUUUUAUGUGUUUGUUGUUUUAAACAUGAGGAUCACCCAUGUAGAAGGCUGAAUGA [JMF 60] (puzzle: Exclusion 2)	21.8 nM			
AAUAAGCGAGGAUAUACACCCGGUAACCGGGAACGGGCGAGACAUGAGGAUCACCCAUGUAGAAGGCGCGUCAA [Ralaente] (Eterna round: R97, puzzle: Exclusion 2)		182 nM	161 nM	
AAUAAUAAACAAGCUUUUUACAUGAGGAUCACCCAUGUCCUCUGCUCGUCUUAUCUUGGGCUUUUUUUGGGUUCGGG [-16.4, -45 kcal, A 21%] (Eterna round: R97, puzzle: Sensor, turn-off variant 1)		813 nM	891 nM	
AAUAAUGAGAAGGAUAUCACUAGCGAUAGCUAGUGAGAAGGUCUCACAUGAGGAUCACCCAUGUGUUCCAAUAA [Mod1 Ex6/6-A4 by Brourd] (Eterna round: R97, puzzle: Exclusion 6)		417 nM	221 nM	
AAUAUGUGAGGAUAUCAGGUGUGCUAGCGUACUGGUACAUCUGAGAAGGCACAUGAGGAUCACCCAUGUAUCUU [Mat - Exclusion 4 - Mod of JL - D45] (puzzle: Exclusion 4)	24.3 nM			

Sequence	apparent KD of MS2 coat protein [1]	apparent KD of MS2 coat protein (input ligand: FMN 200 uM)	apparent KD of MS2 coat protein (input ligand: none)	further results
AAUAUUAGAGGAUAUGCACUUGCACUAACGAAAUCCUCACCACAUGAGGAUCACCCAUGUAGAAGGCUGGUGGU [Eternabot (L2) Solution 65] (Eterna round: R97, puzzle: Exclusion 2)		354 nM	487 nM	
AAUGAGCUAGGAUAUACAUGAGGAUCACCCAUGUAAAAUAGGUCAUGGAGGAACCACUGUAGAAGGAGCAGGGC [Zagereti] (puzzle: Exclusion 3)	47.1 nM			
AAUGAUUGACGAGGAUAUUGUGGUAAAACACGACGAGAAGGCGUCUGUCACAUGAGGAUCACCCAUGUGAGCUUUGUGGAUAGA [Ex NG1 #72] (Eterna round: R96, puzzle: Exclusion NG 1)		52.3 nM	59.8 nM	apparent KD of MS2 coat protein [4]: 33.6 nM
AAUGCGGACAAAGGAUAUUGCGGUGACCGGCUCGGCGUACCGAGCCUACAUGAGGAUCACCCAUGUAAGAAGGUUGUCGCAAAA [Mat - Exclusion NG 2 - Mod of JL - D75] (Eterna round: R96, puzzle: Exclusion NG 2)		16.6 nM	17.5 nM	apparent KD of MS2 coat protein [4]: 13.8 nM
AAUUAGUGAGGAUAUACUAACAGUGGUAGUAGAUAGUGGAUGUAGAAGGCACAUGAGGAUCACCCAUGUUAUAA [EX4 #52] (Eterna round: R97, puzzle: Exclusion 4)		26 nM	43.7 nM	
AAUUAUUGAUGAGGAUAUUGUGGUGAAACACGACAAGAAGGCAUUAUACACAUGAGGAUCACCCAUGUGAGCCUGAUGCAUAUA [Ex NG1 #59] (Eterna round: R96, puzzle: Exclusion NG 1)				apparent KD of MS2 coat protein [4]: 12.4 nM
AAUUAUUUUUGAGGAUAUUGUGGUGAAACACCACAAGAAGGCAAGAUACACAUGAGGAUCACCCAUGUGAGCCUGAUGCUUAUG [Ex NG1 #53] (Eterna round: R96, puzzle: Exclusion NG 1)				apparent KD of MS2 coat protein [4]: 13.1 nM
AAUUCACAUGAGGAUCACCCAUGUCAGGAUAUGGUUUCACGGGUUUCGGUGCGUGAGGCCAGAAGGGACAGCUA (puzzle: Exclusion 1)	51.5 nM			
AAUUUACAUGAGGAUCACCCAUGUGAGGAUAUGGUUUCGCUGGCCGUAGCCAGUGGAACCAGAAGGCGCAUGAU [Mat - Exclusion 1 - JL Mod - D12] (Eterna round: R97, puzzle: Exclusion 1)		283 nM	65.2 nM	
AAUUUUUAUGUAAGGAUAUGGGUUUGGAAACGGGCUUAGAAGGUACAUGAGGAUCACCCAUGUAUAAUGUGCGU [-19.9, -19.7 kcal, 30% A] (Eterna round: R97, puzzle: Brourd's mod of Exclusion 4)		19 nM	18.3 nM	
ACAAAUCAUGUAGGAUAUGCGUGGCGAAGCUAUGCAGAAGGACAUGAGGAUCACCCAUGUGCUUCCGUCUGCGUACAGACGGUA [Mat - Exclusion NG 1 - Mod of JL - D16] (Eterna round: R96, puzzle: Exclusion NG 1)		75.3 nM	91.5 nM	apparent KD of MS2 coat protein [4]: 64.6 nM
ACAAGCAUUUAUAUUUUAAAAUUUUAUCGUCUUAUAAUUACAUGAGGAUCACCCAUGUAUAAAGGGUGAAUAAUAAU [JR_Sensorv2_tov2_Sub550] (Eterna round: R96, puzzle: Sensor v2, turn-off variant 2)		93.9 nM	91.8 nM	apparent KD of MS2 coat protein [4]: 203 nM
ACAAGCUAUAUGCUCGGUUACAUGAGGAUCACCCAUGUACUCAUGUUCUUAUGUACUGACACGAAAGUGUUAGUAAU [AK-miRNA-r3-1] (Eterna round: R97, puzzle: Sensor, turn-off variant 1)		110 nM	122 nM	
ACAAGCUUAAUCAGUAUGAACAUGAGGAUCACCCAUGUAAAAGGGAAUACUAUUGGGUUUUUUAAAGCUCGUCUUAU [JR_STOV1_Sub017] (Eterna round: R97, puzzle: Sensor, turn-off variant 1)		23 nM	21.8 nM	
ACAAGCUUGUAAUGAUUGAACAUGAGGAUCACCCAUGUAAAUGGAAGAACCAACUUGAUAUGAUUUACUCGUCUUAU [JR_STOV1_Sub011] (Eterna round: R97, puzzle: Sensor, turn-off variant 1)		676 nM	546 nM	
ACAAGCUUUUUGUUCGUCUUAUAAUAAUAAAUAAAUAUAACAUGAGGAUCACCCAUGUUAAGAAGACGGCCUCAUGU [Sesor Array 21 - Jieux - Sensor v3, turn-off variant 2] (puzzle: Sensor v3, turn-off variant 2)	174 nM			apparent KD of MS2 coat protein [2]: 82.2 nM; apparent KD of MS2 coat protein [3]: 71.8 nM
ACAAGCUUUUUGUUCGUCUUAUACACUCCUAAUAAGACAACAUGAGGAUCACCCAUGUAACAAAUAAGAACUCAUGU [Sesor Array 5 - Jieux - Sensor v3, turn-off variant 2] (puzzle: Sensor v3, turn-off variant 2)	293 nM			apparent KD of MS2 coat protein [2]: 75 nM; apparent KD of MS2 coat protein [3]: 90.2 nM
